Data published in US20200270358A1 (BEIJING GEFUCURE BIOTECHNOLOGY, published 2020).

Target: T1, CD20 antigen on the surface of Daudi and Raji B lymphoma cells (human, UniProt P11836 1-297)
T1 sequence (looked up): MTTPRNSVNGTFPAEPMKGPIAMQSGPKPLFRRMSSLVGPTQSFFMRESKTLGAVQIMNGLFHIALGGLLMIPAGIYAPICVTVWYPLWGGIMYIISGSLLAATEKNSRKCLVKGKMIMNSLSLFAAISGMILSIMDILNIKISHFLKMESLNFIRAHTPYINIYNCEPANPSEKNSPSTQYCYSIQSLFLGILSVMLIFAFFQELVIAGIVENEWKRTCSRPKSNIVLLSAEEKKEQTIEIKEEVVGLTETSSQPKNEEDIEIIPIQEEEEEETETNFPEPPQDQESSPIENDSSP
Assay: cell-based or functional assay

B1: recombinant afucosylated anti-human CD20 monoclonal antibody prepared in Example 2 (expressed in the milk of a transgenic cow) (antibody, human IgG1, kappa)
heavy: not shown
light: QIVLSQSPAILSASPGEKVTMTCRASSSVSYIHWFQQKPGSSPKPWIYATSNLASGVPVRFSGSGSGTSYSLTISRVEAEDAATYYCQQWTSNPPTFGGGTKLEIKRTVAAPSVFIFPPSDEQLKSGTASVVCLLNNFYPREAKVQWKVDNALQSGNSQESVTEQDSKDSTYSLSSTLTLSKADYEKHKVYACEVTHQGLSSPVTKSFNRGEC
modifications: N-linked sugar chain at Asn-320, mainly afucosylated glycoform (80% to 100%), of which the G2 glycoform is 30% to 100%
**Q.** For B1, which “EC50 (read off the curve): ADCC, percentage of cell lysis (LDH release), NK92/CD16a (158 V/V) effector cells, CD20-bearing B lymphoma target cells” value is on record?
**A.** ~0.5 ng/mL
